In the test the target is T1, HypF (E. coli, UniProt P30131 1-750).
T1 construct: HypF, carbamoyltransferase of [NiFe]-hydrogenase maturation of E. coli; 82 kDa; also called His-tagged HypF; auxiliary protein HypF; source: isolated from E. coli, purified as described previously [21] with 10 mM magnesium acetate in all buffers
T1 sequence (looked up): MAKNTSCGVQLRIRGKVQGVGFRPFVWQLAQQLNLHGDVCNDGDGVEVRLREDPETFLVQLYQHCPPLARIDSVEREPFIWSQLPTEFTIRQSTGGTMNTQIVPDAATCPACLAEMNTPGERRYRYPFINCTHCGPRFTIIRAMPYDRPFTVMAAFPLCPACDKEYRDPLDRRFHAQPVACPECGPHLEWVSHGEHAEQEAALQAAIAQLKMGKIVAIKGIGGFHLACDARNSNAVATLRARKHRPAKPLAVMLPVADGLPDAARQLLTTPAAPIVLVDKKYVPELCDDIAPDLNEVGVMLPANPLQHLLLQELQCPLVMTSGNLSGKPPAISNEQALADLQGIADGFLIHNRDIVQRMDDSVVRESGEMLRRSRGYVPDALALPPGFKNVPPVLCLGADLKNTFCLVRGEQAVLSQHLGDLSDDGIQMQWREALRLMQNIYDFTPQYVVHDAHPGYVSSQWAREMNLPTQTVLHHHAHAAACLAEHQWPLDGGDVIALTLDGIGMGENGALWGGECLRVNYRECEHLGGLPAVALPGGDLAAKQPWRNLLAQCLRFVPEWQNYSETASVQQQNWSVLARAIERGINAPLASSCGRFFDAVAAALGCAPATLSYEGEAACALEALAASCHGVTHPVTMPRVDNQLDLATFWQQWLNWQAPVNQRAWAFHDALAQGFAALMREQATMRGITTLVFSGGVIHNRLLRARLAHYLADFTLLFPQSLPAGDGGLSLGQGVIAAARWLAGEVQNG
As to the kind of experiment: native gel or EMSA; native PAGE as described earlier [35,36]; isolated HypE and HypF; no further conditions told for this experiment. The conditions noted are these: both partners purified. (In general: Mobility shift assays separate free from complexed probe on a gel.)

B1: HypE (natural protein, E. coli, UniProt P24193 1-336, looked up)
chain: MNNIQLAHGSGGQAMQQLINSLFMEAFANPWLAEQEDQARLDLAQLVAEGDRLAFSTDSYVIDPLFFPGGNIGKLAICGTANDVAVSGAIPRYLSCGFILEEGLPMETLKAVVTSMAETARAAGIAIVTGDTKVVQRGAVDKLFINTAGMGAIPANIHWGAQTLTAGDVLLVSGTLGDHGATILNLREQLGLDGELVSDCAVLTPLIQTLRDIPGVKALRDATRGGVNAVVHEFAAACGCGIELSEAALPVKPAVRGVCELLGLDALNFANEGKLVIAVERNAAEQVLAALHSHPLGKDAALIGEVVERKGVRLAGLYGVKRTLDLPHAEPLPRIC
notes: HypE, [NiFe]-hydrogenase maturation protein of E. coli; 36 kDa monomer; C-terminal cysteine C336 in E. coli nomenclature; also called His-tagged HypE; auxiliary protein HypE; source: isolated from E. coli, purified as described previously [21] with 10 mM magnesium acetate in all buffers
Consider B1, for which the binding result is reported as “binds”.
